Reference: patent US20210371539A1 (Genmab, published 2021)

T1: Human CD37 (human, UniProt P11049 1-281)
T1 construct: Endogenous CD37 on the human lymphoma cell line Daudi; also called Leukocyte Antigen CD37; GP52-40
T1 sequence: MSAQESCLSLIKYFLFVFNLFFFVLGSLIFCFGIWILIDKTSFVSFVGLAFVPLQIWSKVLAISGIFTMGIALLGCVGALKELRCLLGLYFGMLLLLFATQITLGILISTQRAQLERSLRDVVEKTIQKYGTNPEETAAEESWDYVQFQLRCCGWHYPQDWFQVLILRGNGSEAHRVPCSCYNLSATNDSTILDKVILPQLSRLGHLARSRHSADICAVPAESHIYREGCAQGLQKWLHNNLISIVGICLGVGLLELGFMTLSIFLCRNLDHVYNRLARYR

T2: Human CD20 (human, UniProt P11836 1-297)
T2 construct: Endogenous CD20 on the human lymphoma cell line Daudi
T2 sequence: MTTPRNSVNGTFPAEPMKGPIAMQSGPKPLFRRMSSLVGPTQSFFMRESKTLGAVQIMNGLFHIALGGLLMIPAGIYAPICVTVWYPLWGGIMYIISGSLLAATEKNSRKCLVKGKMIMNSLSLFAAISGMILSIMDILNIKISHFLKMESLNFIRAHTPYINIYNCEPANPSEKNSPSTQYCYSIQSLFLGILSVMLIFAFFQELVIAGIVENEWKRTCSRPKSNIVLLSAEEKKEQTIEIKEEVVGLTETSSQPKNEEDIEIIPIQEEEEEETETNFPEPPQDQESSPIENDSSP

B1: IgG1-CD37-37.3-E430G (antibody, V domains shown)
VH: QVQVKESGPGLVAPSQSLSITCTVSGFSLTTSGVSWVRQPPGKGLEWLGVIWGDGSTNYHSALKSRLSIKKDHSKSQVFLKLNSLQTDDTATYYCAKGGYSLAHWGQGTLVTVSA
VL: DIQMTQSPASLSVSVGETVTITCRASENIRSNLAWYQQKQGKSPQLLVNVATNLADGVPSRFSGSGSGTQYSLKINSLQSEDFGTYYCQHYWGTTWTFGGGTKLEIKR
modifications: Conjugated to Alexa Fluor 555 or 647 in the FRET assays only (about 3 dyes per antibody, sites not stated).
notes: IgG1 kappa with E430G (EU numbering) in the Fc; also called hexamerization-enhanced CD37 antibody
B2: IgG1-CD37-37.3 (antibody, V domains shown)
VH: B1 VH
VL: DIQMTQSPASLSVSVGETVTITCRASENIRSNLAWYQQKQGKSPQLLVNVATNLADGVPSRFSGSGSGTQYSLKINSLQSEDFGTYYCQHYWGTTWTFGGGTKLEIK
notes: Expressed as IgG1 kappa with wild type Fc; In the FRET assays it was conjugated to Alexa Fluor 555 or 647 (about 3 dye molecules per antibody)
B3: IgG1-CD20-11B8-E430G (antibody, V domains shown)
VH: EVQLVQSGGGLVHPGGSLRLSCTGSGFTFSYHAMHWVRQAPGKGLEWVSIIGTGGVTYYADSVKGRFTISRDNVKNSLYLQMNSLRAEDMAVYYCARDYYGAGSFYDGLYGMDVWGQGTTVTVSS
VL: EIVLTQSPATLSLSPGERATLSCRASQSVSSYLAWYQQKPGQAPRLLIYDASNRATGIPARFSGSGSGTDFTLTISSLEPEDFAVYYCQQRSDWPLTFGGGTKVEIKR
modifications: Conjugated to Alexa Fluor 555 or 647 in the FRET assays only (about 3 dyes per antibody, sites not stated).
notes: IgG1 kappa with E430G (EU numbering) in the Fc; also called Hx-CD20-11B8; Hx-CD20-11B
B4: IgG1-CD20-11B8 (antibody, V domains shown)
VH: B3 VH
VL: EIVLTQSPATLSLSPGERATLSCRASQSVSSYLAWYQQKPGQAPRLLIYDASNRATGIPARFSGSGSGTDFTLTISSLEPEDFAVYYCQQRSDWPLTFGGGTKVEIK
notes: Expressed as IgG1 kappa with wild type Fc; In the FRET assays it was conjugated to Alexa Fluor 555 or 647; also called WT type II CD20 antibody IgG1-CD20-11B8

Tests used:
Human CD37 [1] = biological target: T1, Human CD37; assay: conclusion from CDC assays on Daudi and WIL2-S cells
Human CD37 [2] = biological target: T1, Human CD37; assay: flow cytometry FRET with fluorophore-conjugated antibodies on Daudi cells
Procedure: (§1) 0.5×10⁶ Daudi cells/well were incubated with 10 μg/mL A555-conjugated donor antibodies and/or 10 μg/mL A647-conjugated acceptor antibodies in a total volume of 100 μL RPMI/0.2% BSA in 96-well round-bottom plates (Greiner Bio-One, Cat No 650101) for 15 minutes at 37° C. in a water bath. Cells were washed twice with FACS buffer, pelleted by centrifugation (3 min at 300×g) and resuspended in 200 μL PBST. Mean fluorescence intensities (MFI) were determined by flow cytometry on a FACS Canto II (BD Biosciences) by recording 10,000 events at 585/42 nm (FL2, donor A555) and […] (FL3), both excited at 488 nm, and at 660/20 nm (FL4, acceptor A647), excited at 635 nm. Unquenched donor fluorescence intensity was determined from cells incubated with only A555-conjugated donor antibodies, and non-enhanced acceptor intensity was determined from cells incubated with only A647-conjugated acceptor antibodies. Proximity-induced FRET was determined by measuring the energy transfer between cells incubated with both A555-conjugated donor and A647-conjugated acceptor antibodies. MFI values were used to calculate FRET according to the following equation: energy transfer (ET)=FL3(D,A)−FL2(D,A)/a−FL4(D,A)/b, wherein a=FL2(D)/FL3(D), b=FL4(A)/FL3(A), D is donor, A is acceptor and FLn (D,A)=donor+acceptor. ET values obtained were normalized according to the following equation: normalized energy transfer (%)=100*ET/FL3(D, A).

IgG1-CD37-37.3-E430G = biological target: B1; assay: FRET by flow cytometry, A555/A647-conjugated antibodies on Daudi cells; Fc-Fc interaction between cell-bound antibodies
Procedure: as §1, with “ET values obtained were normalized according to the following equation: normalized energy transfer (%)=100*ET/FL3(D, A).” left out

Human CD20 = biological target: T2, Human CD20; assay: flow cytometry FRET with fluorophore-conjugated antibodies on Daudi cells
Procedure: as §1

Binder: B1
binding result (Human CD37 [1]): binds

Binder: B2
binding result (Human CD37 [2]): binds

Binder: B3
binding result (IgG1-CD37-37.3-E430G): binds | binding result (Human CD20): binds

Binder: B4
binding result (Human CD20): binds
